4 molecules from patent publication US20230406950A1 (LYVGEN BIOPHARMA, published 2023) can be followed below.

Assay [1] has as its target T1, human PD-L1 expressed on cells (human, UniProt Q9NZQ7 19-290).
T1 construct: whole, on cells; also called human PD-L1 expressed on CHO cells; Raji-PD-L1 cells
Kind of assay: flow cytometry (FACS), MFI, CHO cells expressing human PD-L1. As to the method: (§1) Exemplary anti-PD-1/CD137 bi-specific antibodies were analyzed by FACS for their binding properties to human PD-1 and/or human CD137 expressed on CHO cells. Briefly, cultured cells were harvested, counted and cell viability was evaluated using the Trypan Blue exclusion method. Viable cells were then adjusted to 2×10⁶ cells per mL in PBS containing 2% BSA. 100 μL of this cell suspension were further aliquoted per well into a V-bottom 96-well plate. […] After incubation for 2 hours at 4° C., cells were centrifuged (3 min, 1000× g), washed with 250 μL/well BSA-containing FACS Stain Buffer, resuspended and incubated for an additional 1 hour at 4° C. with 100 μL/well fluorochrome-conjugated anti-IgG antibody for detection of the bisepecific antibody. Cells were then washed with 250 μL/well BSA-containing FACS Stain Buffer, resuspended in 100 μL/well FACS Stain Buffer, acquired and analyzed using a FACS machine. Binding of the bispecific antibodies to human PD-1 or human CD137 expressing CHO cells were evaluated and the mean fluorescence intensity is plotted in histograms or dot plots.
Exemplary anti-PD-L1/CD137 bi-specific antibodies were analyzed by FACS for their binding properties to human PD-L1 or human CD137 expressed on CHO cells, following the procedures disclosed in Examples 1 above.

For assay [2], the target named is T2, Human PD-L1 ECD fragment (His tag) (human, UniProt Q9NZQ7 19-238).
T2 construct: extracellular domain; also called recombinant human PD-L1; not shown: His tag
Kind of assay: bridging ELISA: human CD137 ECD (mouse IgG2a Fc tag) coated, antibody titrated, then human PD-L1 ECD (His tag), HRP anti-His detection; A450-A620. As for the experimental part: (§2) Exemplary anti-PD-L1/CD137 bi-specific antibodies were analyzed by ELISA for their simultaneous binding to recombinant human PD-L1 and human CD137. Briefly, the ECD portion of human CD137 protein (mouse IgG2a Fc tag) was diluted and coated onto an ELISA plate with a volume of 100 μL/well by incubation at 4° C. overnight. The next day, the plate was blocked with PBST-BSA buffer, then serially diluted samples of anti-PD-L1/CD137 bi-specific antibodies were pipetted into appropriate wells at 50 μL/well, and the plate was incubated for 1 h followed by Washing. Human PD-L1 ECD fragment (His tag) was added into the plate at 50 μL/well. After 1-hour incubation at room temperature, HRP-conjugated anti-His tag antibody was added into the plate at 100 μL/well and […]. The plate was incubated for 1 hour at room temperature followed by washing. TMB substrate solution was added at 100 μL/well and the color development was stopped by adding 100 uL/well Stop Solution (2N H₂SO₄). Absorbance at 450 nm and 620 nm was read by Tecan F200 Pro plate reader. GraphPad 7.0, “[Agonist] vs. response—Variable slope (four parameters)” was used to plot the binding data and calculate binding EC50 values.

The target of assay [3] is T3, ECD portion of human CD137 protein (mouse IgG2a Fc tag) (human, UniProt Q07011 24-186).
T3 construct: extracellular domain; also called recombinant human CD137; not shown: mouse IgG2a Fc tag
Described as above. As to the method:
as §2

The target in assay [4] is T4, human CD137 expressed on cells (human, UniProt Q07011 24-255).
T4 construct: whole, on cells; also called 4-1BB; TNFRSF9
The assay is described as follows: FACS on CHO cells expressing human CD137 (MFI). As for the experimental part:
as §1, with “Anti-GITR/CD137” for “Exemplary anti-PD-1/CD137”, “GITR” for “PD-1”

Broadly, the EC50 (read off the curve) is the concentration that produces a half-maximal response. High values mean weaker potency, low ones greater potency.

T4 sequence (Q07011 24-255): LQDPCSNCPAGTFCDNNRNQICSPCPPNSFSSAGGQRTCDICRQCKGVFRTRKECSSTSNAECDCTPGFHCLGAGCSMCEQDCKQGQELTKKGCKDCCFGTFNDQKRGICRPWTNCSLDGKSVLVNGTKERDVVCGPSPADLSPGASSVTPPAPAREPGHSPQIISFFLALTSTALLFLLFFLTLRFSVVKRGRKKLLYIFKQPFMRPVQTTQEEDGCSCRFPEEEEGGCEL
T2 sequence (Q9NZQ7 19-238): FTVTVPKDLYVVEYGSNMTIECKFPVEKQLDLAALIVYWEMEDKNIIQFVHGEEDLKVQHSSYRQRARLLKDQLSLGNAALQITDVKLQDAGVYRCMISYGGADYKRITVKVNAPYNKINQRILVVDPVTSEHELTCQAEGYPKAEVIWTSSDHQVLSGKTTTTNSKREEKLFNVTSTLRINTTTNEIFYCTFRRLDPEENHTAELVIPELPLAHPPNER
T1 sequence (Q9NZQ7 19-290): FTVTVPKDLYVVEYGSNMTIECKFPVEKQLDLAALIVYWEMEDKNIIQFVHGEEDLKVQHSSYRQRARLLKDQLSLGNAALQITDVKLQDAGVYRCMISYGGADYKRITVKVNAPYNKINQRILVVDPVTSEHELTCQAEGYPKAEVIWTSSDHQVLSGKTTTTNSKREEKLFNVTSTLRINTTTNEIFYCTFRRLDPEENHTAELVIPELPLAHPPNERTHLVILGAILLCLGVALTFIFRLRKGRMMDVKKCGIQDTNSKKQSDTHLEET

B1: Ly346 (bispecific antibody, human IgG1, kappa)
heavy: QVQLVQSGAEVKKPGASVKVSCKASGYTFTDFWMSWVRQAPGQGLEWMGQIYPNTGTTHSNEKFKGRVTMTRDTSTSTVYMELSSLRSEDTAVYYCARSYHISTTPNWFAYWGQGTLVTVSSASTKGPSVFPLAPSSKSTSGGTAALGCLVKDYFPEPVTVSWNSGALTSGVHTFPAVLQSSGLYSLSSVVTVPSSSLGTQTYICNVNHKPSNTKVDKKVEPKSCDKTHTCPPCPAPELLGPSVFLFPPKPKDTLMISRTPEVTCVVVDVSHEDPEVKFNWYVDGVEVHNAKTKPREEQYNSTYRVVSVLTVLHQDWLNGKEYKCKVSNKALPAPIEKTISKAKGQPREPQVYTLPPSREEMTKNQVSLTCLVKGFYPSDIAVEWESNGQPENNYKTTPPVLDSDGSFFLYSKLTVDKSRWQQGNVFSCSVMHEALHNHYTQKSLSLSPGGGGGSGGGGSGGGGSGGGGSQVQLVQSGAEVKKPGASVKVSCKASGYTFAGFEMHWVRQAPGQGLEWMGAIDPKTGGTDYNQKFKDRVTMTRDTSISTAYMELSRLRSDDTAVYYCARDLGYFDVWGQGTLVTVSSGGGGSGGGGSGGGGSGGGGSDIQMTQSPSSLSASVGDRVTITCRASQDIRSNLNWYQQKPGGAVKLLIYYTSRLHSGVPSRFSGSGSGTDYTLTISSLQPEDFATYFCQQSEKLPRTFGGGTKVEIR
light: DIQMTQSPSSLSASVGDRVTITCKASQNVYKKLEWYQQKPGKVPKVLIYHTNILQTGVPSRFSGSGSGTDYTLTISSLQPEDVATYYCYQWNSGPTFGGGTKVEIKRTVAAPSVFIFPPSDEQLKSGTASVVCLLNNFYPREAKVQWKVDNALQSGNSQESVTEQDSKDSTYSLSSTLTLSKADYEKHKVYACEVTHQGLSSPVTKSFNRGEC
notes: Anti-PD-L1/CD137: Ly076 heavy chain fused to Ly1630 scFv (VH-VL); Ly076 light chain
Regarding B1, the binding result in assay [1] and in assay [2] was “binds” each time. The concentration for a half-maximal effect (EC50 (read off the curve)) in assay [3] was around 0.1 µg/mL.

B2: Ly759 (bispecific antibody, human IgG1, kappa)
heavy: QVQLQESGPGLVKPSETLSLTCTVSGFSLTSYNVHWIRQPPGKGLEWIGVIWSGVRTDYNSVLKPRVTISVDTSKNQFSLKLSSVTAADTAVYYCARGTYDDNYHDVMDAWGQGTLVTVSSASTKGPSVFPLAPSSKSTSGGTAALGCLVKDYFPEPVTVSWNSGALTSGVHTFPAVLQSSGLYSLSSVVTVPSSSLGTQTYICNVNHKPSNTKVDKKVEPKSCDKTHTCPPCPAPELLGPSVFLFPPKPKDTLMISRTPEVTCVVVDVSHEDPEVKFNWYVDGVEVHNAKTKPREEQYNSTYRVVSVLTVLHQDWLNGKEYKCKVSNKALPAPIEKTISKAKGQPREPQVYTLPPSREEMTKNQVSLTCLVKGFYPSDIAVEWESNGQPENNYKTTPPVLDSDGSFFLYSKLTVDKSRWQQGNVFSCSVMHEALHNHYTQKSLSLSPGGGGGSGGGGSGGGGSGGGGSQVQLVQSGAEVKKPGASVKVSCKASGYTFAGFEMHWVRQAPGQGLEWMGAIDPKTGGTDYNQKFKDRVTMTRDTSISTAYMELSRLRSDDTAVYYCARDLGYFDVWGQGTLVTVSSGGGGSGGGGSGGGGSGGGGSDIQMTQSPSSLSASVGDRVTITCRASQDIRSNLNWYQQKPGGAVKLLIYYTSRLHSGVPSRFSGSGSGTDYTLTISSLQPEDFATYFCQQSEKLPRTFGGGTKVEIR
light: EIVLTQSPATLSLSPGERATLSCRASKSVRTGMHWYQQKPGQAPRLLIYGASNLESGIPARFSGSGSGTDFTLTISSLEPEDFAVYYCQQSWNHFTFGQGTKLEIKRTVAAPSVFIFPPSDEQLKSGTASVVCLLNNFYPREAKVQWKVDNALQSGNSQESVTEQDSKDSTYSLSSTLTLSKADYEKHKVYACEVTHQGLSSPVTKSFNRGEC
notes: Anti-GITR/CD137: TM685-derived heavy chain fused to Ly1630 scFv (VH-VL); TM685 light chain
Turning to B2, the “EC50 (read off the curve)” value in assay [4] is around 0.6 µg/mL.

B3: Ly347 (bispecific antibody, human IgG1, kappa)
heavy: QVQLVQSGAEVKKPGASVKVSCKASGYTFTDFWMSWVRQAPGQGLEWMGQIYPNTGTTHSNEKFKGRVTMTRDTSTSTVYMELSSLRSEDTAVYYCARSYHISTTPNWFAYWGQGTLVTVSSASTKGPSVFPLAPSSKSTSGGTAALGCLVKDYFPEPVTVSWNSGALTSGVHTFPAVLQSSGLYSLSSVVTVPSSSLGTQTYICNVNHKPSNTKVDKKVEPKSCDKTHTCPPCPAPELLGPSVFLFPPKPKDTLMISRTPEVTCVVVDVSHEDPEVKFNWYVDGVEVHNAKTKPREEQYNSTYRVVSVLTVLHQDWLNGKEYKCKVSNKALPAPIEKTISKAKGQPREPQVYTLPPSREEMTKNQVSLTCLVKGFYPSDIAVEWESNGQPENNYKTTPPVLDSDGSFFLYSKLTVDKSRWQQGNVFSCSVMHEALHNHYTQKSLSLSPG
light: DIQMTQSPSSLSASVGDRVTITCKASQNVYKKLEWYQQKPGKVPKVLIYHTNILQTGVPSRFSGSGSGTDYTLTISSLQPEDVATYYCYQWNSGPTFGGGTKVEIKRTVAAPSVFIFPPSDEQLKSGTASVVCLLNNFYPREAKVQWKVDNALQSGNSQESVTEQDSKDSTYSLSSTLTLSKADYEKHKVYACEVTHQGLSSPVTKSFNRGECGGGGSGGGGSGGGGSGGGGSQVQLVQSGAEVKKPGASVKVSCKASGYTFAGFEMHWVRQAPGQGLEWMGAIDPKTGGTDYNQKFKDRVTMTRDTSISTAYMELSRLRSDDTAVYYCARDLGYFDVWGQGTLVTVSSGGGGSGGGGSGGGGSGGGGSDIQMTQSPSSLSASVGDRVTITCRASQDIRSNLNWYQQKPGGAVKLLIYYTSRLHSGVPSRFSGSGSGTDYTLTISSLQPEDFATYFCQQSEKLPRTFGGGTKVEIR
notes: Anti-PD-L1/CD137: Ly076 heavy chain; Ly076 light chain fused to Ly1630 scFv (VH-VL)
Regarding B3, the binding result in assay [1] and in assay [2] was “binds” throughout. In addition, the “EC50 (read off the curve)” value in assay [3] was around 0.2 µg/mL.

B4: Ly757 (bispecific antibody, human IgG1, kappa)
heavy: QVQLVQSGAEVKKPGASVKVSCKASGYTFAGFEMHWVRQAPGQGLEWMGAIDPKTGGTDYNQKFKDRVTMTRDTSISTAYMELSRLRSDDTAVYYCARDLGYFDVWGQGTLVTVSSASTKGPSVFPLAPSSKSTSGGTAALGCLVKDYFPEPVTVSWNSGALTSGVHTFPAVLQSSGLYSLSSVVTVPSSSLGTQTYICNVNHKPSNTKVDKKVEPKSCDKTHTCPPCPAPELLGPSVFLFPPKPKDTLMISRTPEVTCVVVDVSHEDPEVKFNWYVDGVEVHNAKTKPREEQYNSTYRVVSVLTVLHQDWLNGKEYKCKVSNKALPAPIEKTISKAKGQPREPQVYTLPPSREEMTKNQVSLTCLVKGFYPSDIAVEWESNGQPENNYKTTPPVLDSDGSFFLYSKLTVDKSRWQQGNVFSCSVMHEALHNHYTQKSLSLSPGK
light: DIQMTQSPSSLSASVGDRVTITCRASQDIRSNLNWYQQKPGGAVKLLIYYTSRLHSGVPSRFSGSGSGTDYTLTISSLQPEDFATYFCQQSEKLPRTFGGGTKVEIRRTVAAPSVFIFPPSDEQLKSGTASVVCLLNNFYPREAKVQWKVDNALQSGNSQESVTEQDSKDSTYSLSSTLTLSKADYEKHKVYACEVTHQGLSSPVTKSFNRGECGGGGSGGGGSGGGGSGGGGSQVQLQESGPGLVKPSETLSLTCTVSGFSLTSYNVHWIRQPPGKGLEWIGVIWSGVRTDYNSVLKPRVTISVDTSKNQFSLKLSSVTAADTAVYYCARGTYDDNYHDVMDAWGQGTLVTVSSGGGGSGGGGSGGGGSGGGGSEIVLTQSPATLSLSPGERATLSCRASKSVRTGMHWYQQKPGQAPRLLIYGASNLESGIPARFSGSGSGTDFTLTISSLEPEDFAVYYCQQSWNHFTFGQGTKLEIK
notes: Anti-GITR/CD137: Ly1630 heavy chain; Ly1630 light chain fused to TM685 scFv (VH-VL)
Take B4: the concentration giving a half-maximal response (EC50 (read off the curve)) in assay [4] was around 0.2 µg/mL.
